How the values were obtained:
mouse SEMA4D-His = biological target: T1, mouse SEMA4D-His (mouse, UniProt O09126 24-733, limits assumed); assay: receptor blocking; antibody dilution series pre-incubated with SEMA4D-His, binding to 293PLXNB1 cells (Plexin B1) read by flow cytometry
T1 construct: not shown: His tag, detected with anti-6xHis-APC
T1 sequence (looked up): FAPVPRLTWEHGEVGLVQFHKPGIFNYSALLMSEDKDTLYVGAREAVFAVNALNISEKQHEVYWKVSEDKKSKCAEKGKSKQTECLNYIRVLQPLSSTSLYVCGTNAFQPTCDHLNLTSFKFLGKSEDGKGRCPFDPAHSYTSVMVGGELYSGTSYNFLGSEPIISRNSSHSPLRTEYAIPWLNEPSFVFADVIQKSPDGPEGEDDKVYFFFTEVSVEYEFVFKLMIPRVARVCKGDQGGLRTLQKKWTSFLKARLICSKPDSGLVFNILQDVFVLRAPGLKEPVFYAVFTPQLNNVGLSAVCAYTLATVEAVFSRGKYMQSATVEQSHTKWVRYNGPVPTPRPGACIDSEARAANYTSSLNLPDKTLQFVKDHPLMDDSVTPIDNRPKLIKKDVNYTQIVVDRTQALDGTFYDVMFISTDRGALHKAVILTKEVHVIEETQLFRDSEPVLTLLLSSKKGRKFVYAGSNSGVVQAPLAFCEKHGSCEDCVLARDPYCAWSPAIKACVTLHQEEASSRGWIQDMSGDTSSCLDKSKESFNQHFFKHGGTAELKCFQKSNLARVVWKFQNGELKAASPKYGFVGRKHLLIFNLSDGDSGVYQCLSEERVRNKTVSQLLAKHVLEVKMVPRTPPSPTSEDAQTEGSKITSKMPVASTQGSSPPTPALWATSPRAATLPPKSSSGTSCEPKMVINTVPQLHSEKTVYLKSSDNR
Method: (§1) After washing, the cells were stained with anti-6xHis-APC (30 min, 4° C.), washed and analyzed by flow cytometry on FACS Canto II.

rat SEMA4D-His = biological target: T2, rat SEMA4D-His (rat, UniProt A0A8I6G5Q1 23-734); assay: as above
T2 construct: not shown: His tag, detected with anti-6xHis-APC
Method: as §1

[1] = biological target: T3, cynomolgus monkey SEMA4D-His (cynomolgus monkey); assay: as above
T3 construct: also called Cyno SEMA4D
Method: as §1

human SEMA4D-His = biological target: T4, human SEMA4D-His (human, UniProt Q92854 22-734, limits assumed); assay: as above
T4 construct: also called CD100-His; not shown: His tag, detected with anti-6xHis-APC
T4 sequence (looked up): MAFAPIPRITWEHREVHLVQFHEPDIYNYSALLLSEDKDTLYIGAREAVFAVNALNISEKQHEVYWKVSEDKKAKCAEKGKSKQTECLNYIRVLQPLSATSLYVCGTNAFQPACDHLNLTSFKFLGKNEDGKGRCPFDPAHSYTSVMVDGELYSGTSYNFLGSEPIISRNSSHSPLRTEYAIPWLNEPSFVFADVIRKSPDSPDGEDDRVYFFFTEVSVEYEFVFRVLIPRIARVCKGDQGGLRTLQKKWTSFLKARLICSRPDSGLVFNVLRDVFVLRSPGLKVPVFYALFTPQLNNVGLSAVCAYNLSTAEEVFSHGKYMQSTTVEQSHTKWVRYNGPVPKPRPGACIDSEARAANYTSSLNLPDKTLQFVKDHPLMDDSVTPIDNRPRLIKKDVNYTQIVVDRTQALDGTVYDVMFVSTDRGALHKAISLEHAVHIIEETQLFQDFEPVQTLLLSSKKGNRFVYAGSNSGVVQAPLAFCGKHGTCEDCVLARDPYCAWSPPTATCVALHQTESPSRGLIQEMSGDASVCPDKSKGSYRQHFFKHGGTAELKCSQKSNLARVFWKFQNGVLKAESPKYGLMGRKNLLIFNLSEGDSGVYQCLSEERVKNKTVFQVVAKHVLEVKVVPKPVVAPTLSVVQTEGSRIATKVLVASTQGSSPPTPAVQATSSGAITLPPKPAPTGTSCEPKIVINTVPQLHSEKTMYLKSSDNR
Method: as §1

marmoset SEMA4D-His = biological target: T5, marmoset SEMA4D-His (marmoset, UniProt A0A8I3W811 22-734); assay: BIACORE; antibody captured with goat anti-human IgG Fc, marmoset SEMA4D-His as analyte
T5 construct: also called CD100-His; not shown: His tag
T5 sequence: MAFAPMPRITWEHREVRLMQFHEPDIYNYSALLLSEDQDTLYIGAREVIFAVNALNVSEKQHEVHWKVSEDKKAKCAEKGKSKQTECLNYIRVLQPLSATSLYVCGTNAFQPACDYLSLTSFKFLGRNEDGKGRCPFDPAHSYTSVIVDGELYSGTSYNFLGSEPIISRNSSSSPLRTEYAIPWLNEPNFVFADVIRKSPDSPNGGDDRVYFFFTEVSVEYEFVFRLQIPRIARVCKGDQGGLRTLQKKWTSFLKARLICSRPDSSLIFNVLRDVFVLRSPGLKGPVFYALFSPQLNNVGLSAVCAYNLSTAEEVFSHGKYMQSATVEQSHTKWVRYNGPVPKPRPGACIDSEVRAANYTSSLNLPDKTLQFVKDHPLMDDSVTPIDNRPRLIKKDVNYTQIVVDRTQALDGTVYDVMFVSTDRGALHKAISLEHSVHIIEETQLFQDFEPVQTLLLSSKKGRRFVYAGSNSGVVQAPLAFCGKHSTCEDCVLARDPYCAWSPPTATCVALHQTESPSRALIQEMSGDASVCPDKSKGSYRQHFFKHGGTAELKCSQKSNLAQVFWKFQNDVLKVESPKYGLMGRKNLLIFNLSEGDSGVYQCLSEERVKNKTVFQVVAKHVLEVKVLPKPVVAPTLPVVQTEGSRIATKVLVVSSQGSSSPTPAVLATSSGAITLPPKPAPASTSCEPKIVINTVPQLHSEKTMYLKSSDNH
Method: The binding characteristics of MAb D2517 were determined by BIACORE assay, as follows.

EC50 (mouse SEMA4D-His): 1.2 nM
EC50 (rat SEMA4D-His): 1.5 nM
EC50 [1]: 1.2 nM
EC50 (human SEMA4D-His): 1 nM
Ka (marmoset SEMA4D-His): 2.47e+08 M⁻¹
Kd (marmoset SEMA4D-His): 4 nM
koff (marmoset SEMA4D-His): 0.0032 s⁻¹
kon (marmoset SEMA4D-His): 789000 M⁻¹ s⁻¹
B1: MAb D2517 (antibody, V domains shown)
VH: EVQLVESGGGLVQPGGSLRLSCAASGFIFSDYWMVWVRQAPGKGLEYVAHMNQDGGARYYAESVRGRFTISRDNAKNSLYLQMNSLRAEDTAVYYCARDPWGYDSWGQGTLVT
VL: not shown

— US20210032329A1 (VACCINEX, published 2021)
